Source: PMC8864705 (Chemical Science, 2022)
Residue numbers refer to the chain shown, from its start. Names may count otherwise.

Experiments:
[1] = molecular target: T1, 4.1G-CTD triple mutation I958D/V959D/I960D (human, UniProt O43491 939-1005, I958D | V959D | I960D); test: ITC
T1 sequence (looked up): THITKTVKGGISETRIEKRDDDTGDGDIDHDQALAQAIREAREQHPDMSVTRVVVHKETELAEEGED

[2] = molecular target: T2, C-terminal domain of protein 4.1G (4.1G-CTD, aa 939–1005) (human, UniProt O43491 939-1005); test: ITC
T2 sequence (looked up): T1 sequence (looked up) with D20I, D21V, D22I

SGRKTRSARRRTTQIINITMTKKLDV (domain or fragment, human, UniProt Q14980 1800-1825, looked up) [NuMA 1800–1825 (26-residue motif at the C-terminal region of nuclear mitotic apparatus protein)]
Kd [1]: 333 ± 73 µM

SGRKTRSARRRTTQIINITMTKKLAV (domain or fragment, human, UniProt Q14980 1800-1825, looked up) [NuMA 1800–1825 mutant D1824A]
binding result [2]: binds
